Consider five molecules from patent publication EP1086377B1, “A METHOD OF IDENTIFYING LIGANDS TO RNA […] 70 SUBUNIT” (AstraZeneca AB, priority 1998, dated 1999).

The target in experiment [1] is T1, Truncated sigma^70 (C-terminal 99 amino acids) (Escherichia coli, UniProt P00579).
T1 construct: made in house; GST-AsiA from E. coli DH5alpha / pARC 8105
In words: Competitive ELISA for quantification of AsiA-sigma^70 interaction (GST-AsiA binding to immobilised truncated sigma^70). Set-up: species or system E. coli. The method, then: A solution of the protein product (200 pmoles/ml) in a pH 7.5 buffer comprising Tris HCl (10 mM) and sodium chloride (50 mM) was prepared and 200 µl of solution were added per well of a nickel-coated microtitre plate, followed by incubation at room temperature for a period of two hours. The microtitre plate was then washed 5 times with the buffer solution and then incubated at 37°C for one hour with a solution of bovine serum albumin (3% w/v) in the above buffer. After washing 5 times with phosphate buffered saline (PBS) with "Tween" 20 (polyoxyethylene (20) sorbitan monolaurate, 0.5% v/v), the GST-AsiA fusion protein prepared as described in Example 4.1. above (100 ng) was added together with a defined amount of a putative inhibitor of truncated sigma^70 protein (corallopyronin, myxopyronin or ripostatin) and incubated at 37°C for one hour. Further washing (5 times) with PBS-"Tween" 20 was carried out and then anti-GST antibodies (1:2000) raised in rabbits were added to the wells, with incubation at 37°C for one hour. The previous washing step was repeated and thereafter anti-rabbit IgG-horse radish peroxidase (HRP) conjugate (1:2000) was added and incubated at 37°C for one hour. A final wash with PBS-"Tween" 20 was carried out, before adding the HRP enzyme substrate, tetramethyl benzidene/ H2O2. The enzymic reaction (resulting in the development of colour) was stopped after a suitable period of time by the addition of 6N H2SO4 and the microtitre plate was "read" in a spectrophotometer using light of wavelength (λ) 450 nm.
Background: ELISA stands for enzyme-linked immunosorbent assay.

The target in experiment [2] is E. coli RNA polymerase sigma^70 subunit (Escherichia coli) (UniProt P00579). In words: cell-based or functional assay.
Experiment [3] deals with Salmonella typhimurium RNA polymerase sigma^70 subunit (Salmonella typhimurium) (UniProt P0A2E3). Put plainly: cell-based or functional assay.
In experiment [4] the target is Truncated sigma^70 (C-terminal 99 amino acids of E. coli sigma^70), (His)5-tagged (Escherichia coli) (UniProt P00579). In words: competitive ELISA; His-tagged truncated sigma^70 on nickel plate, free AsiA 7 µg/ml competing with GST-AsiA 500 ng/ml; the value is the GST-AsiA binding that remains.
Experiment [5] has the same target. Put plainly: ELISA; His-tagged truncated sigma^70 on nickel plate, GST-AsiA detected with rabbit anti-GST and anti-rabbit IgG-HRP, OD 450 nm; reference without competitor.
Where [6] appears, read: GST-AsiA 500 ng/ml + competitor at 30 µg/ml.

Chain of E. coli RNA polymerase sigma^70 subunit (Escherichia coli) (P00579 whole entry): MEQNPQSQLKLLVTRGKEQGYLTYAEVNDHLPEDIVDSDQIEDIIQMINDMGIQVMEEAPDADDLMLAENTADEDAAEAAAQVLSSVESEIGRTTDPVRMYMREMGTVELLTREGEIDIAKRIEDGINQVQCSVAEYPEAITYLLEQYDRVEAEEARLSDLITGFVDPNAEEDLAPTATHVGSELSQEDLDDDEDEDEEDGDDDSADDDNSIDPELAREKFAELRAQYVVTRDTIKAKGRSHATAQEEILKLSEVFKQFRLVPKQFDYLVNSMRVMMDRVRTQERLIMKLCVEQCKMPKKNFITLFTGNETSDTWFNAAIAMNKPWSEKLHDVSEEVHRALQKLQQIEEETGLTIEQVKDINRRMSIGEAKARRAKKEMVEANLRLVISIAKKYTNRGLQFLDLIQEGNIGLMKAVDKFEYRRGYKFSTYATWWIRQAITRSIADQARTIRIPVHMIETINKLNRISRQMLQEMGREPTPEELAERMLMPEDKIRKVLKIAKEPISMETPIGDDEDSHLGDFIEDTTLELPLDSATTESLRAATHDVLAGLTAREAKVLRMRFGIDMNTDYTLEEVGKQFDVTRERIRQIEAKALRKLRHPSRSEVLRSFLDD
T1 sequence (P00579 515-613): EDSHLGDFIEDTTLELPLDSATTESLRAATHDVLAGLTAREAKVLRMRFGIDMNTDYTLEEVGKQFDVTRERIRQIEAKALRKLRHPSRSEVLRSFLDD
Chain of Salmonella typhimurium RNA polymerase sigma^70 subunit (Salmonella typhimurium) (P0A2E3 whole entry, the tested form may be a part): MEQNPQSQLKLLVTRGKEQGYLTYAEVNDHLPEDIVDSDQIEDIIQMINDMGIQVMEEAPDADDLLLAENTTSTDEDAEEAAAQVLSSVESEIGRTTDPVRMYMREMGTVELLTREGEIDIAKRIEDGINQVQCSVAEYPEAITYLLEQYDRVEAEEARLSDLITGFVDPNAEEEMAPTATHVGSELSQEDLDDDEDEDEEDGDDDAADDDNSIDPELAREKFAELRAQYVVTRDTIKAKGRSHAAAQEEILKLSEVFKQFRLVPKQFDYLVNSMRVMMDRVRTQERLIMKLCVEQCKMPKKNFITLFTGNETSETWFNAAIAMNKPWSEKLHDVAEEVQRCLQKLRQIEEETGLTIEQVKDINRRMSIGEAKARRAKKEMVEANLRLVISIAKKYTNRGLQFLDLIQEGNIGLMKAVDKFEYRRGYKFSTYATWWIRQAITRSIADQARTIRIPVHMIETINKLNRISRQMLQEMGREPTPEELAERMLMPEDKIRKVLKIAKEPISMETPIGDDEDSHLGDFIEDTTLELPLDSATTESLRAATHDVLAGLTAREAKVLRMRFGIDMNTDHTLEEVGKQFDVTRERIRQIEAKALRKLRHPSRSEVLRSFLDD
Chain of Truncated sigma^70 (C-terminal 99 amino acids of E. coli sigma^70), (His)5-tagged (Escherichia coli) (P00579 515-613): as the sequence (P00579 515-613) above
Chain of GST-AsiA fusion protein (glutathione-S-transferase fused to the N-terminus of the bacteriophage T4 a (P08515 whole entry, the tested form may be a part): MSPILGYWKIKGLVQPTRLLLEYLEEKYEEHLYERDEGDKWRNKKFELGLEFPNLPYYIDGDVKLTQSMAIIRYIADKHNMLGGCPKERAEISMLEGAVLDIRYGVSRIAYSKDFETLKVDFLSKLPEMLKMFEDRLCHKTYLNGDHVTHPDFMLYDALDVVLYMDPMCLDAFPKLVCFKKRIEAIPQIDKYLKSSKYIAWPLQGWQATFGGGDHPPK

With `C/C=C/C/C=C(\C)C(O)CC/C(C)=C/C=C(\C)C(=O)c1c(O)cc([C@H](C)CC/C=C/NC(=O)OC)oc1=O` (some centres unmarked) [corallopyronin], the “% Binding to truncated sigma^70” value in experiment [1] (setting [6]) amounted to 69%.
`C/C(=C\Cc1ccccc1)CCC(=O)C[C@H]1C[C@H](O)C/C(C)=C/C/C=C/C/C(CC(=O)O)=C\C(=O)O1` [ripostatin]: the “% Binding to truncated sigma^70” value in experiment [1] (GST-AsiA 500 ng/ml + competitor at 1 µg/ml) amounted to 100%; in experiment [1] (GST-AsiA 500 ng/ml + competitor at 10 µg/ml), 55%; in experiment [1] (GST-AsiA 500 ng/ml + competitor at 100 µg/ml) it was 1.5%.
“AsiA protein (anti-sigma^70 factor of bacteriophage T4, asiA gene product), released from GST-AsiA by Factor Xa”: in experiment [2], the [^3H]UTP (nmol) incorporated: E. coli RNA polymerase + 0.1 µg AsiA (control without AsiA 2.1), E. coli sigma^70 series was 0.57 nmol; the [^3H]UTP (nmol) incorporated: E. coli RNA polymerase + 0.1 µg AsiA (control without AsiA 2.3), S. typhimurium sigma^70 series before sigma^70 is added was found to be 0.34 nmol; the [^3H]UTP (nmol) incorporated: E. coli RNA polymerase + 0.1 µg AsiA + 4 µg E. coli sigma^70 (reactivation) is 2.3 nmol; the [^3H]UTP (nmol) incorporated: E. coli RNA polymerase + 0.1 µg AsiA + 4 µg E. coli sigma^70 preincubated with 0.1 µg AsiA is 0.68 nmol. Moreover, the inhibition of E. coli RNA polymerase activity by 0.07 µg AsiA, T4 DNA template in experiment [2] is more than 80%. Besides, in experiment [3], the [^3H]UTP (nmol) incorporated: E. coli RNA polymerase + 0.1 µg AsiA + 4 µg S. typhimurium sigma^70 (reactivation) was found to be 3 nmol and the [^3H]UTP (nmol) incorporated: E. coli RNA polymerase + 0.1 µg AsiA + 4 µg S. typhimurium sigma^70 preincubated with 0.1 µg AsiA came to 0.98 nmol. The molecule further registered a % Binding to truncated sigma^70 in experiment [4] of 12%.
The molecule “GST-AsiA fusion protein (glutathione-S-transferase fused to the N-terminus of the bacteriophage T4 a (from UniProt P08515 1-218)” came in with a % Binding to truncated sigma^70 in experiment [5] of 100%.
With myxopyronin, in experiment [1] (setting [6]), the “% Binding to truncated sigma^70” value turned out to be 56%.
